The source of these data is the supplement of paper PMC9732359.

± gives the uncertainty stated by the source.

This data set can be described thus: protein stability index of a GFP-peptide fusion (yeast GPS) (PSI 1-4); higher = more stable; sorted into four equal gates, so the index is relative within each strain. The method in brief:
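Mid-log yeast cultures in leucine-free medium, carrying a pooled plasmid library, were sorted into four equal gates by their GFP/Cherry fluorescence ratio. Each plasmid expressed Cherry along with GFP fused upstream of a tiled 17-residue yeast protein peptide. Plasmids recovered from each gate were PCR-amplified and Illumina-sequenced, with reads assigned to strains by barcodes. The protein stability index was obtained by summing each gate's read frequency weighted by its gate number.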

On to VANVKDLETLTMHTKTY [RPL32], for which the protein stability index (doa10∆) came to 3.08 ± 0.13, the protein stability index (pdr5∆) came to 3.01 ± 0.11, the protein stability index (san1∆) stood at 2.98 ± 0.075 and the protein stability index (ubr1∆) is 2.95 ± 0.077.

In turn, VASLVLARGHRVEKIPE [RPL4A] displayed a protein stability index (pdr5∆) of 3.4 ± 0.24.

Consider VASQTVKKVIEINPFLL [PRE2], for which the protein stability index reads like this: (pdr5∆) 3.07 ± 0.17; (san1∆) 2.44 ± 0.11.

Regarding VDDAIELALKTLSKTTD [PRE9], the protein stability index reads like this: (doa10∆) 2.43 ± 0.066; (pdr5∆) 1.92 ± 0.063; (san1∆) 2.42 ± 0.074; (ubr1∆) 2.64 ± 0.057.

VDEEDENGTHNDEVNED [YCG1] came in with a protein stability index (doa10∆) of 3.46 ± 0.09, a protein stability index (pdr5∆) of 3.32 ± 0.17, a protein stability index (san1∆) of 3.55 ± 0.11 and a protein stability index (ubr1∆) of 3.51 ± 0.077.

Regarding VDENGDPIWQHQSLGPD [RET1], the protein stability index (doa10∆) was 3.25 ± 0.056, the protein stability index (pdr5∆) was found to be 3.21 ± 0.081, the protein stability index (san1∆) was 3.33 ± 0.042 and the protein stability index (ubr1∆) worked out at 3.27 ± 0.084.

As to VDIVNQWFLQYQNQFVE [YML103C/NUP188], the protein stability index was 1.79 ± 0.055 (doa10∆), 2.1 ± 0.054 (pdr5∆), 1.81 ± 0.065 (san1∆) and 2.29 ± 0.042 (ubr1∆).

VDLIEKFLRYNPLEKRD [RPB10]: the protein stability index reads like this: (doa10∆) 2.91 ± 0.14; (pdr5∆) 3.27 ± 0.12; (san1∆) 3.23 ± 0.071; (ubr1∆) 3.11 ± 0.041.

As for VDNSPTTESNSRLKALN [YLR335W/NUP2], the protein stability index worked out at 3.18 ± 0.07 (doa10∆), 3.12 ± 0.057 (pdr5∆), 3.11 ± 0.058 (san1∆) and 2.97 ± 0.059 (ubr1∆).

For the sequence VDNVWADVYAKALEGKD [RPP1B], the protein stability index reads like this: (doa10∆) 3.14 ± 0.1; (pdr5∆) 3.1 ± 0.16; (san1∆) 3.35 ± 0.12; (ubr1∆) 3.06 ± 0.11.

Consider VDPEQEAHNKALNQFKR [RPT4], for which the protein stability index was determined as 3.37 ± 0.19 (doa10∆), 3.26 ± 0.13 (pdr5∆), 3.41 ± 0.11 (san1∆) and 3.02 ± 0.14 (ubr1∆).

Turning to VDPIQSVKGKVVIDAFR [RPN11], the protein stability index (doa10∆) was determined as 2.59 ± 0.072, the protein stability index (pdr5∆) was found to be 2.65 ± 0.092, the protein stability index (san1∆) is 2.1 ± 0.093 and the protein stability index (ubr1∆) stood at 2.26 ± 0.081.

Consider VDPKRLAMVIIKEFVDD [DSN1], for which the protein stability index worked out at 3.33 ± 0.1 (doa10∆), 3.3 ± 0.1 (pdr5∆), 3.31 ± 0.096 (san1∆) and 3.1 ± 0.066 (ubr1∆).

For the sequence VDSISLHKIFYKVLKNN [YCG1], the protein stability index reads like this: (doa10∆) 1.99 ± 0.047; (pdr5∆) 2.32 ± 0.039; (san1∆) 2.71 ± 0.037; (ubr1∆) 2.3 ± 0.042.

As for VDSRATAGNWVASQTVK [PRE2], the protein stability index worked out at 3.17 ± 0.12 (doa10∆), 3.4 ± 0.079 (pdr5∆), 3.13 ± 0.078 (san1∆) and 3.26 ± 0.066 (ubr1∆).

For the sequence VDVNNKFIALCEQQPSQ [SIN4], the protein stability index runs as follows: (doa10∆) 2.82 ± 0.051; (pdr5∆) 2.96 ± 0.05; (san1∆) 3.18 ± 0.052; (ubr1∆) 3 ± 0.059.

For VEAGMIALRNGQSSVKH [RPT5], the protein stability index was found to be 2.87 ± 0.14 (doa10∆), 2.9 ± 0.16 (pdr5∆), 2.79 ± 0.11 (san1∆) and 2.6 ± 0.11 (ubr1∆).

For VEASRRRRSSTNKSKRP [MED1], the protein stability index was 3.19 ± 0.066 (doa10∆), 3.31 ± 0.056 (pdr5∆), 3.22 ± 0.044 (san1∆) and 3.28 ± 0.043 (ubr1∆).

On to VEFINKMENFEFLPLSL [SRB8], for which the protein stability index by setting is: (doa10∆) 3.08 ± 0.16; (pdr5∆) 3 ± 0.069; (san1∆) 3.1 ± 0.12; (ubr1∆) 3.16 ± 0.097.

As for VEIAFLFRAIYLYCLDN [YCG1], the protein stability index (doa10∆) amounted to 1.54 ± 0.065, the protein stability index (pdr5∆) turned out to be 1.3 ± 0.054, the protein stability index (san1∆) came to 1.21 ± 0.11 and the protein stability index (ubr1∆) is 1.2 ± 0.05.

As for VEIIDQKKVLIDGPKAG [RPL14A], the protein stability index by setting is: (doa10∆) 2.8 ± 0.18; (pdr5∆) 2.65 ± 0.09; (san1∆) 2.91 ± 0.076; (ubr1∆) 2.72 ± 0.065.

For the sequence VEKLGKKMEARGQSIWV [RPN9], the protein stability index (ubr1∆) was determined as 1.51 ± 0.14.

In turn, VELHGKRKLDIGKDTFV [PRP8] registered a protein stability index (doa10∆) of 3.26 ± 0.29, a protein stability index (pdr5∆) of 2.94 ± 0.13, a protein stability index (san1∆) of 2.47 ± 0.17 and a protein stability index (ubr1∆) of 2.21 ± 0.11.

With VENDTFIERNFTPQEIE [FAS2], the protein stability index runs as follows: (doa10∆) 2.87 ± 0.083; (pdr5∆) 2.32 ± 0.062; (san1∆) 2.15 ± 0.068; (ubr1∆) 3.18 ± 0.05.

As to VENSVLIEKVDDTAANN [YIL149C/MLP2], the protein stability index runs as follows: (doa10∆) 2.83 ± 0.15; (pdr5∆) 2.82 ± 0.15; (san1∆) 2.68 ± 0.14; (ubr1∆) 2.79 ± 0.088.

Sequence VENWIIDDKGVLMERKD [ITC1] showed a protein stability index (doa10∆) of 1.69 ± 0.099, a protein stability index (pdr5∆) of 2.98 ± 0.18, a protein stability index (san1∆) of 3.09 ± 0.15 and a protein stability index (ubr1∆) of 2.7 ± 0.1.

On to VENYETSSAFFYQQVHK [SIR4], for which the protein stability index runs as follows: (doa10∆) 2.75 ± 0.04; (pdr5∆) 2.57 ± 0.042; (san1∆) 2.43 ± 0.045; (ubr1∆) 2.52 ± 0.03.
